Patent publication US20180111972A1 (Stanford University, published 2018)

T1: scPDGF, yeast-displayed (human)
T1 chain: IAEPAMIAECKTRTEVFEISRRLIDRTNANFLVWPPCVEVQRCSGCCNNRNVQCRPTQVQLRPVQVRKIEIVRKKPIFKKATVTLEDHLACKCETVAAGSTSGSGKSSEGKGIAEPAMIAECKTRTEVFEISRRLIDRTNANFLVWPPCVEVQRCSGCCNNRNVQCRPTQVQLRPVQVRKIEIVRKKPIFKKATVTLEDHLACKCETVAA

B1: PVRF (PV6 with K87R and I182F), yeast-displayed (designed binder)
chain: IAEPAMIAECHPIETLVDIFQEYPDEIEYIFKPSCVPLMRCGGCCNNRNVQCRPTEESNITMQIMRIKPHQGQHIGEMSFLQHNKCRCETVAAGSTSGSGKSSEGKGEVVKFMDVYQRSYCKTRTEVFEISRRLIDRTNANFLVWPPCVEVQRCSGCCNDEGLECVPTQVQLRPVQVRKIEFVRKKPIFKKATVTLEDHLACECRPKKD
B2: PDGFRβ-His (residues 1-314 of PDGFR-β with C-terminal hexahistidine tag) (receptor)
chain: LVVTPPGPELVLNVSSTFVLTCSGSAPVVWERMSQEPPQEMAKAQDGTFSSVLTLTNLTGLDTGEYFCTHNDSRGLETDERKRLYIFVPDPTVGFLPNDAEELFIFLTEITEITIPCRVTDPQLVVTLHEKKGDVALPVPYDHQRGFSGIFEDRSYICKTTIGDREVDSDAYYVYRLQVSSINVSVNAVQTVVRQGENITLMCIVIGNEVVNFEWTYPRKESGRLVEPVTDFLLDMPYHIRSILHIPSAELEDSGTYTCNVTESVNDHQDEKAINITVVESGHHHHHH
notes: range 1-314; Monovalent form, expressed in FreeStyle 293-F cells; also called PDGRβ-His; PDGFR-His
B3: PDGFRβ-Fc (residues 1-314 of PDGFR-β fused to the Fc region of mouse IgG2a) (Fc fusion)
chain: LVVTPPGPELVLNVSSTFVLTCSGSAPVVWERMSQEPPQEMAKAQDGTFSSVLTLTNLTGLDTGEYFCTHNDSRGLETDERKRLYIFVPDPTVGFLPNDAEELFIFLTEITEITIPCRVTDPQLVVTLHEKKGDVALPVPYDHQRGFSGIFEDRSYICKTTIGDREVDSDAYYVYRLQVSSINVSVNAVQTVVRQGENITLMCIVIGNEVVNFEWTYPRKESGRLVEPVTDFLLDMPYHIRSILHIPSAELEDSGTYTCNVTESVNDHQDEKAINITVVESG
notes: range 1-314; Expressed in FreeStyle 293-F cells; also called PDGRβ-Fc; PDGFR-Fc; not shown: Fc region of mouse IgG2a
B4: scPDGF, single-chain version of wild-type PDGF-BB, soluble, FLAG and hexahistidine tags (ligand)
chain: T1 chain

Legend:
[1] = molecular target: B2; assay: yeast surface display titration, flow cytometry
Experimental: (§1) Cells were incubated in large enough volumes to avoid ligand depletion and appropriate time to reach equilibrium. During the last hour of incubation, yeast were incubated with 1:250 dilution of chicken anti-c-Myc (Invitrogen) in PBSA. […] Yeast were washed, pelleted, and resuspended in PBSA immediately before analysis by flow cytometry using BD FACSCalibur or BD Accuri C6. Flow cytometry data were analyzed using FlowJo (v7.6.1 and v10, Treestar) or BD Accuri C6 software. Statistical analysis was performed using GraphPad Prism 6.

[2] = molecular target: T2, soluble PDGFRβ (Fc or His format not stated for the experiment) (human, UniProt P09619 33-532); assay: yeast surface display titration; table under the panel 'PDGFR binding', Fc or His form not given
T2 construct: extracellular domain

VEGFR2-Fc (R&D Systems) = molecular target: T3, VEGFR2-Fc (R&D Systems) (human, UniProt P35968 20-764); assay: yeast surface display, flow cytometry: VEGFR2-Fc bound, with and without pre-incubation with 100 nM PDGFRβ-Fc
T3 construct: extracellular domain; Bought reagent; also called VEGFR-Fc; not shown: Fc part, detected with anti-human-IgG (Fc specific)
Experimental: as §1

[3] = molecular target: B2; assay: yeast surface display, flow cytometry titration of PDGFRβ-His (panel 'PDGFRβ binding')
Experimental: as §1

[4] = molecular target: T2, soluble PDGFRβ (Fc or His format not …); assay: yeast surface display, flow cytometry titration of soluble receptor; panel 'PDGFR binding', Fc or His form not given
scPDGF, yeast-displayed [5] = molecular target: T1, scPDGF, yeast-displayed; assay: yeast surface display of scPDGF, flow cytometry titration of PDGFRβ-His, anti-His detection
Experimental: as §1
(§2) Bound protein was detected using fluorescently-labeled anti-His and anti-mouse-Fc antibodies.

[6] = molecular target: B4; assay: cell-based or functional assay
scPDGF, yeast-displayed [7] = molecular target: T1, scPDGF, yeast-displayed; assay: yeast surface display of scPDGF, flow cytometry titration of PDGFRβ-Fc, anti-mouse-Fc detection
Experimental: as §1, §2

[8] = molecular target: B2; assay: KinExA Kinetics Injection; could not be accurately determined because of the fast equilibrium time
[9] = molecular target: PDGFRβ on DiscoveRx PathHunter U2OS PDGFRβ reporter cells (UniProt P09619 33-1106, limits assumed); assay: cell-based or functional assay
[10] = molecular target: B2; assay: KinExA; calculated, could not be accurately determined because of the fast equilibrium time
[11] = molecular target: B2; assay: KinExA, equilibrium titration in solution, n-curve analysis
Experimental: For KinExA measurements, a constant amount of PDGF/VEGF ligand is titrated with differing concentrations of PDGRβ-His or VEGFR2-His. The solutions are incubated for an appropriate amount of time to allow the ligand-receptor binding reaction to reach equilibrium. The solution is then briefly exposed to a solid support containing immobilized PDGFR or VEGFR, which captures unbound ligand. The amount of ligand bound to the solid support is then detected using a fluorescently-labeled antibody. […] For each binding interaction measured, curves for two concentrations of the constant ligand are performed. By performing two experiments with fixed ligand concentrations above and below the Kd, and fitting both sets of data with a nonlinear regression analysis, a more accurate measurement for the affinity can be obtained.
Kinetic Exclusion Assay (KinExA). All experiments were performed on a KinExA 3200 instrument with siliconized flow cell (Sapidyne Instruments Inc). […] 30 μg of receptor was incubated in 1 ml of 50 mM sodium bicarbonate, 0.5 M sodium citrate buffer, pH 8.3, for 2 hr at room temperature with rocking. Beads were allowed to settle by gravity and liquid removed. Beads were blocked by incubating in 1 ml of 10 mg/ml BSA in 1 M Tris buffer, pH 8.0, for 1 hr at room temperature with rocking, and stored in blocking buffer at 4° C. for up to one week until use. Running buffer contained PBS with 10 mM imidazole and 0.02% sodium azide. Samples were prepared in running buffer with 1 mg/ml BSA. Binding reactions were prepared with a fixed concentration of PDGF/VEGF ligands and dilution series of PDGFR or VEGFR. Captured PDGF/VEGF ligands were detected using a Dylight 649-conjugated anti-FLAG antibody (Rockland) at 1:1000 dilution in sample buffer. Kinetic experiments were performed with the “Kinetics Injection” method defined in the KinExA software. Data were analyzed with KinExA Pro Software.

T3 sequence (P35968 20-764): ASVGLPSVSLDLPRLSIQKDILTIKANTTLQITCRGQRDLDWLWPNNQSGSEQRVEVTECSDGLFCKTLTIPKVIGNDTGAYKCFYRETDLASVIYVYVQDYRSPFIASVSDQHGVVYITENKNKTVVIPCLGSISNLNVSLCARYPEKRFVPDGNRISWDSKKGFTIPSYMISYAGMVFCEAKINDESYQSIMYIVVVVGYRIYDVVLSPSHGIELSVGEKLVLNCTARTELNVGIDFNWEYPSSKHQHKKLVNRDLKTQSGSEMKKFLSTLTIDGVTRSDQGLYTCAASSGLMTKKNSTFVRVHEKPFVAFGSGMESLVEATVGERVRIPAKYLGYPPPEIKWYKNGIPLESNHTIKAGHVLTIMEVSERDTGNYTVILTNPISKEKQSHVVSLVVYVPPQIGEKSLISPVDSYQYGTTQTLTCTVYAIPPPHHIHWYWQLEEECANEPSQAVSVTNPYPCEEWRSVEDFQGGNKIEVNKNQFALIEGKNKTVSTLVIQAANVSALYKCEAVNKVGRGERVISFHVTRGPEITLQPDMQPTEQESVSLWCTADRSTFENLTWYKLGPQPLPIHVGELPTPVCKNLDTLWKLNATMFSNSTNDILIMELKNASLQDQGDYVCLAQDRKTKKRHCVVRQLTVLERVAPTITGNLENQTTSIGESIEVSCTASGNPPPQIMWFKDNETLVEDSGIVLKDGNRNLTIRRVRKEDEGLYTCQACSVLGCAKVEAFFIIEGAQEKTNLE

B1
Kd [1]: 370 pM
Kd [2]: 240 pM
binding result (VEGFR2-Fc (R&D Systems)): binds
EC50 (read off the curve) [3]: ~300 pM
EC50 (read off the curve) [4]: ~200 pM

B2
EC50 (read off the curve) (scPDGF, yeast-displayed [5]): ~300000 pM

B3
IC50 of inhibition of NIH/3T3 proliferation stimulated by scPDGF, alamarBlue [6]: 8700 pM
IC50 of inhibition of stimulation by 100 pM scPDGF, PathHunter reporter cells [6]: 130 pM
EC50 (read off the curve) (scPDGF, yeast-displayed [7]): ~30 pM

B4
kon [8]: > 1.7e+07 M⁻¹ s⁻¹
EC50 of receptor activation, DiscoveRx PathHunter PDGFR reporter cells, chemiluminescence [9]: 140 pM
koff [10]: > 0.31 s⁻¹
Kd [11]: 18000 pM
